Results reported in article PMC7954794, “Protein context shapes the specificity of SH3 domain-mediated interactions in vivo” (Nature Communications, 2021).

B1: Pin3 WT (protein, UniProt Q06449 2-215, looked up)
[PSI+] inducibility protein 3: SASLINRSLTNIRTELDFLKGSNVISNDVYDQINKSLPAKWDPANAPRNASPASLEYVEALYQFDPQQDGDLGLKPGDKVQLLEKLSPEWYKGSCNGRTGIFPANYVKPAFSGSNGPSNLPPPPQYKAQELQQIPTQNSAASSYQQQPFPPPSTNYYQQPQQQPQQAPPPQQQQQQQQHQSSHSHLKSFGSKLGNAAIFGAGASIGSDIVNNIF
B2: YLR332W (protein, UniProt P36027 26-376, looked up)
Cell wall integrity sensor …: QFFVQSSSSNSSAVSTARSSVSRVSSSSSILSSSMVSSSSADSSSLTSSTSSRSLVSHTSSSTSIASISFTSFSFSSDSSTSSSSSASSDSSSSSSFSISSTSATSESSTSSTQTSTSSSSSLSSTPSSSSSPSTITSAPSTSSTPSTTAYNQGSTITSIINGKTILSNHYTTVTYTPSATADSSNKSKSSGLSKKNRNIVIGCVVGIGVPLILVILALIYMFCIQSSRTDFIDSDGKVVTAYRANKFTKWWYMLLGKKVSDEYHSDSPLGGSASSAGGLDLDEADDVMEQSSLFDVRIRDSDSVLPNANTADHNNTNSGGEPINSSVASNDIIEEKFYDEQGNELSPRNY
B3: YKL117W (protein, UniProt P28707 2-216, looked up)
Co-chaperone protein SBA1: SDKVINPQVAWAQRSSTTDPERNYVLITVSIADCDAPELTIKPSYIELKAQSKPHVGDENVHHYQLHIDLYKEIIPEKTMHKVANGQHYFLKLYKKDLESEYWPRLTKEKVKYPYIKTDFDKWVDEDEQDEVEAEGNDAAQGMDFSQMMGGAGGAGGAGGMDFSQMMGGAGGAGSPDMAQLQQLLAQSGGNLDMGDFKENDEEDEEEEIEPEVKA
B4: Nbp2 WT (protein, UniProt Q12163 1-236, looked up)
NAP1-binding protein 2: MATMETTTQKDTNILKSGLKKTIGVLNEAVLQNGREVEAVQAGNSDTMEDTETTTIGYISIKDYAYADSNPLHYGYFDGDNEEDEMVSDSSNGEDTYNKRQSITLPDDYIVNQRAVALYDFEPENDNELRLAEGDIVFISYKHGQGWLVAENESGSKTGLVPEEFVSYIQPEDGENEVENKARPFYLTHLITQSVSPKNNIDNTNEDEYDDNDEWEDIDDVAEVEADMKTKLDISD

Tests used:
Type in all cases: cell-based, Saccharomyces cerevisiae
[1] = test system: SH3-deleted bait proteins (1xFLAG); assay: Western blot expression level of SH3-deleted baits (Fig. S1F-G); conditions: Western blot Flag signal, 1xFLAG-tagged WT or SH3-deleted bait; sheet FigS1F-G
Description: Precultures of yeast cells expressing baits fused with the DHFR F[1,2]-FLAG were grown overnight at 30 °C with agitation in synthetic complete medium. The next day, cells were expanded in synthetic complete medium to reach their exponential phase (OD600 of around 1.0), pelleted, and frozen at −80 °C. The equivalent of fifty OD600 of cells was resuspended in ice-cold yeast lysis buffer (10 mM Tris-HCl pH 7.4, 150 mM NaCl, 0.5 mM EDTA (Millipore Sigma), 1% Triton X-100 (Millipore Sigma), and one cOmplete Mini Protease Inhibitor Cocktail (Millipore Sigma) per 10 mL) with […] glass beads (Millipore Sigma) and disrupted at 4 °C by 10 cycles of 2 min vortexing and 2 min cooldown. The equivalent of […] of lysed cells was used for the immunoprecipitation of the bait proteins using FLAG-M2 agarose beads (Millipore Sigma). The beads were incubated with the cell lysates for 120 min at 4 °C with a slow rotation, followed by three washes with the yeast lysis buffer.
Protein extracts and affinity-purified baits from yeast and human lysed cells were migrated on 10% polyacrylamide gels. The separated proteins were then transferred to nitrocellulose membranes. Validation of correct protein loading was done with ponceau staining of the membranes. Before the primary antibody incubations, membranes were blocked in 5% milk. Protein signals were detected on an Amersham Imager 600RGB (GE Healthcare) following the incubation of the membranes with the appropriate HRP-conjugated secondary antibodies and the Clarity Western ECL Substrate (Bio-Rad). The antibodies used in this study are M2-HRP (A8592, Sigma, 1/50,000), rabbit anti-FLAG (F7425, Sigma, 1/1000), PAK (SC-881, Santa Cruz, 1/200), p130cas/BCAR1 (SC-860, Santa Cruz, 1/200), actin (Cell Signaling Technology, 1/2000), anti-mouse HRP (Cell Signaling Technology, 1/10,000) and anti-rabbit HRP (Cell Signaling Technology, 1/10,000). The quantification of the WB signals was performed with the Amersham Imager 600 analysis software (GE Healthcare).

[2] = test system: ABP1; assay: DHFR-PCA on solid medium, bait ABP1 (Fig. 1B); conditions: bait ABP1, label = prey; for medrep (log2 median colony size normalized to plate background, PCA score): 2-4 replicates; for Ratio (SH3-deleted/WT medrep): only significant differences showed, PPIs completely lost have a ratio of 0.1 and the gained PPIs 2.5
Source text: (§1) Supplement 41467_2021_21873_MOESM8_ESM.xlsx, sheet "Fig1B" | column: medsize; medrep; Ratio; Score

[3] = test system: BOI1; assay: DHFR-PCA on solid medium, bait BOI1 (Fig. 1B); conditions: bait BOI1, label = prey; 3-8 replicates
Source text: as §1

[4] = test system: BBC1; assay: DHFR-PCA on solid medium, bait BBC1 (Fig. 1B); conditions: bait BBC1, label = prey; for medrep (log2 median colony size normalized to plate background, PCA score): 2-4 replicates
Source text: as §1

[5] = test system: BOI2; assay: DHFR-PCA on solid medium, bait BOI2 (Fig. 1B); conditions: bait BOI2, label = prey; 3-8 replicates
Source text: as §1

[6] = test system: BUD14; assay: DHFR-PCA on solid medium, bait BUD14 (Fig. 1B); conditions: bait BUD14, label = prey; 4 replicates
Source text: as §1

[7] = test system: BEM1-1; assay: DHFR-PCA on solid medium, bait BEM1-1 (Fig. 1B); conditions: bait BEM1-1, label = prey; 2-8 replicates
Source text: as §1

[8] = test system: BEM1-2; assay: DHFR-PCA on solid medium, bait BEM1-2 (Fig. 1B); conditions: bait BEM1-2, label = prey; 2-8 replicates
Source text: as §1

[9] = test system: 575 putative partners (preys) of 22 WT SH3-containing proteins; assay: DHFR-PCA on solid medium, WT and SH3-deleted baits (Fig. 1B); set-up: key to Score: 0: SH3-independent; 1: SH3-dependent PPIs; 2: SH3-inhibited PPIs
In short: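 In S. cerevisiae, 22 SH3-containing baits fused genomically to DHFR F[1,2], either WT or with each SH3 replaced via CRISPR by a poly-Gly/Ser linker, screened against 575 DHFR F[3] preys plus 40 negative controls in 1536 arrays, preys duplicated at randomized positions.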

Molecule | Flag [1] | medrep (log2 median colony size normalized to plate background, PCA score) [2] | Ratio (SH3-deleted/WT medrep) [2] | medrep (log2 median colony size normalized to plate background, PCA score) [3] | medrep (log2 median colony size normalized to plate background, PCA score) [4] | medrep (log2 median colony size normalized to plate background, PCA score) [5] | medrep (log2 median colony size normalized to plate background, PCA score) [6] | medrep (log2 median colony size normalized to plate background, PCA score) [7] | medrep (log2 median colony size normalized to plate background, PCA score) [8] | medrep (log2 median colony size normalized to plate background, PCA score) ([9]; bait SLA1-3, DHFR-PCA, label = prey, Replicates 4 (2 for YCR009C, YDR388W, YIL033C)) | Score ([9]; bait SLA1-3, label = prey) | Ratio (SH3-deleted/WT medrep) ([4]; only significant differences showed, PPIs completely lost have a ratio of 0.1 and the gained PPIs 2.5)
B1 | 304553 | – | – | – | – | – | – | – | – | – | – | –
B2 | – | 3.345 | 1.326 | 3.534 | 4.7031 | 4.169 | 1.439 | 4.445 | 4.445 | – | – | –
B3 | – | 3.786 | 1.319 | – | 1.6151 | – | 3.847 | – | – | 4.6716 | 0 | 0.1
B4 | 158710 | – | – | – | – | – | – | – | – | – | – | –
